Tested on: E. coli DH1 ΔacrAB
Assay: Survival test of heterologous efflux pump library in 1-hexene saturated atmosphere
Format: cell-based
Settings: FIG. 7
Protocol: FIG. 7: Impact of homologous pumps on growth in presence of 1-hexene. Survival test of E. coli DH1 ΔacrAB producing either the AcrAB wild type or AcrAB homologs in a 1-hexene saturated atmosphere was performed. One dilution of cultures (10^6 cells) was spotted on agar plate. […] From left to right and from top to bottom of the picture, are culture of strains producing the pumps A. vinelandii (YP_002797425), A. vinelandii (MexF), A. vinelandii (YP_002801502), P. putida (TtgB), P. putida (NP_745594), P. putida (MexF), P. putida (NP_743067), P. aeruginosa (MexB), P. aeruginosa (NP_250708), P. aeruginosa (MexF), P. aeruginosa (NP_253065), P. fluorescens (YP_258460), P. fluorescens (YP_260376), P. fluorescens (YP_258159), P. fluorescens (YP_258289), R. metallidurans (YP_586997), R. melallidurans (YP_583276), R. metallidurans (YP_583852), M. aqueolei (YP_960752), M. aqueolei (YP_957870), P. syringae (YP_276144), P. syringae (YP_275089), P. syringae (MdtB), P. syringae (YP_273025), P. syringae (YP_273463), P. syringae (YP_272632), G. metallireducens (YP_383777), G. metallireducens (YP_384620), G. metallireducens (YP_385464), G. metallireducens (YP_384608), G. metallireducens (YP_386066), B. pertussis (NP_880739), D. vulgaris (YP_009662), S. putrefaciens (YP_001181626), A. borkumensis (YP_692684), B. borkumensis (YP_694242), P. haloplanktis (AcrB), S. halifaxensis (YP_001672433), S. halifaxensis (YP_001673423), S. halifaxensis (YP_001674385), E. coli (AcrEF), E. coli (AcrAB), E. coli (AcrD).
An existing library of heterologous efflux pumps in E. coli (Dunlop et al. 2011) was used to test if another pump may provide better tolerance to 1-hexene than the native E. coli AcrAB-TolC system. Using the agar plate-based method, this strain library constructed in a DH1 ΔacrAB background was tested and the survival compared in presence of 1-hexene relative to the strain expressing an equivalent plasmid-borne copy of the native acrAB genes.
To test the heterologous efflux pump library, the same method was used. […]

Molecule	tolerance to 1-hexene relative to the native E. coli acrAB-expressing strain
Marinobacter aqueolei EPL: heterologous RND efflux pump, AcrB homolog from Marinobacter aqueolei EPL (protein, listed as Marinobacter aqueolei) MPRFFIERPIFAWVVALMLMLGGGLAVKNLAVNQFPDVAPPAIALSVNYPGASAQTVQDTVVQVIEQQLNGLDGLRYISSESNSDGSMTIIATFEQGTDPDIAQVQVQNKLQLANPLLPEEVQRQGIRVSKYKVNFFTVFALTSPDGKYTQGDLADYIVSNIQDPVARTQGVGDFLLFGSQYAMRLWLDPEKLNSYQLTPQDVINSVRAQNVQVSAGQLGGLPTAEGVQLQATVIGKQRMKTAEEFENILLKVNPDGSQVRLADVAEVNLGNENYATTGKYNGAPAAGMALRLATGANQLETAGRVKETLAELERFLPEGVEIVFPYDTTPVVSASIETVAMTLIEAVVLVFLVMFLFLQSWRATIIPTLAVPVVLLATFGVLYAFGFTVNVMTMFAMVLAIGLLVDDAIVVVENVERLMEEEGLSPKEAAKKSMDQISGALLGIGLVISAVFLPMAFFGGSTGVIYRQFSVTIISAMSFSVLVAFIFTPALCATLLKPGDQHVRKGFFGWFNRTFDRSADRYKSGVSYLIKRKGRFMGVYLLLVVAVGFLFKGLPTAFLPDEDQGVMIVMVQLPTNATGERTEAVLAEAGNYLLEEESEVVKSVMSVRGFNFAGRGQNSGILFVDLKPFADRESFAQSVFALAGRSGARFAQIKDAIVFPIVPPAILELGNATGFDLYLKDNGAIGHHALMAATNEFISRANAAPELNMVRHNGLPDEPQYQVIIDDEKARLLQVSIADINATMSAAWGSSYVNDFLHNGRVKKVYVQGKPDSRLAPEDFDKWFVRNAQGEMVPFAAFATGEWVFGSPRLQRYQGLPATQIQGAPANGYSTGDAMAALERIAADLPQGLGLEYTGLSFEEKQAGNQAMMLYLLSILVVFLCLAALYESWSIPFAVIMLVPLGVLGAVLATMARGLSNDVFFQVGMLTTMGLAAKNAILIVEFARQLYEQEGKPLLQATAEAARLRLRPIIMTSLAFIFGVLPMAIASGASSASQHAIGTAVVGGTLAATILAIFFVPLFYVFVVGLTGKRKSADD	equivalent tolerance
Pseudoalteromonas haloplanktis TAC125: heterologous RND efflux pump, AcrB homolog from Pseudoalteromonas haloplanktis TAC125 (protein, listed as Pseudoalteromonas haloplanktis) MSRYFIDKPIFAWVLAIIVMLAGILAVKSLPIAQYPSIAPPAISITANYPGASAQTLEDSVTQVIEQKMKGLDGLLYMSSTSESNGSATLTLTFNADTDPDIAQVQVQNKLATATPLLPEEVQRQGVVVAKAARNFLLVLAFVSKDGSMTNIDIGDYVASNVQDIVSRVDGVGEAQLFGSQYAMRIWLDPAKLQNFKLTPNDIGAAITAQNAQVSAGQLGGMPAIAGQQLNATITAQSRLQTPEQFENILVKTNSDGSVVRLKDVARVELGGENYGVVARYNGDPAAGIGIKLASGANALDTAEGVKKALEDLKPFFPEGLDVAIPYDTTPFVSLSIEKVVHTLIEAVILVFVVMYLFLQNFRATLIPTIAVPVVLLGTFAILYTFGYSINTLTMFAMVLAIGLLVDDAIVVVENVERLMTEEKLSALDATRKSMDEIKGALVGIAMVLSAVFIPMAFFSGSTGVIYRQFSITIVSAMGLSVLVALILTPALCATLLKPSHVHDKTSFIGRFFSGFNRGFDKTNRGAQGIVGRMISQSKRYLLIYGVLVGGMVYVFSSLPTAFLPDEDQGILFNQVMLPAGSTIEQTLGVVEKVENHYLNDQAEAVGSIFTVTGFSFAGSGQNSAIGFVNLKHWDERQRDDLSVNAVAGKGMGYFSTIKEAFVFAFPPPAIVELGTANGFNMFLQDRVGLGHDELLNARNMLLGMASKSPVLAGVRPNGQEDMPELQLDIDLAKAEALGVTQTDINSTLSTAWGSRYVNDFIDRGRVKKVYMQGEADSRMVPEDLNKWYVRNNNGDMVPFAAFASSHWSYGSPRLERYNGFSAMEIQGSAAPGYSTGQAMDEMERLVKQLPNGIASEWSGISYQERSSGGQAPLLYGLSLLFVFLCLAALYESWSVPFAVMIIVPLGIFGAIMAALIGNLSNDIYLQVGLLTTIGLASKNAILIVEFAIHKMEEGLSLVDAAIAAVKLRLRPVLMTSLAFICGVVPLAIASSAGSGAQNALGISIIGGTLAASTLVVLFVPLFFVLVRKTFSSKSAVATKESE	equivalent tolerance
Pseudomonas putida KT2440: heterologous RND efflux pump, AcrB homolog from Pseudomonas putida KT2440 (protein, listed as Pseudomonas putida) MSKFFIDRPIFAWVIALVIMLVGALSILKLPINQYPSIAPPAIAIAVTYPGASAQTVQDTVVQVIEQQLNGIDNLRYVSSESNSDGSMTITATFEQGTNPDTAQVQVQNKLNLATPLLPQEVQQQGIRVTKAVKNFLLVIGLVSEDGSMTKDDLANYIVSNMQDPISRTAGVGDFQVFGAQYAMRIWLDPAKLNKFQLTPVDVKTAVAAQNVQVSSGQLGGLPALPGTQLNATIIGKTRLQTAEQFESILLKVNKDGSQVRLGDVAQVGLGGENYAVSAQFNGKPASGLAVKLATGANALDTAKALRETIKGLEPFFPPGVKAVFPYDTTPVVTESISGVIHTLIEAVVLVFLVMYLFLQNFRATIITTMTVPVVLLGTFGILAAAGFSINTLTMFAMVLAIGLLVDDAIVVVENVERVMSEEGLPPKEATKRSMEQIQGALVGIALVLSAVLLPMAFFGGSTGVIYRQFSITIVSAMGLSVLVALIFTPALCATMLKPLKKGEHHTAKGGFFGWFNRNFDRSVNGYERSVGAILRNKVPFLLAYALIVVGMIWLFARIPTAFLPEEDQGVLFAQVQTPAGSSAERTQVVVDQMREYLLKDEADTVSSVFTVNGFNFAGRGQSSGMAFIMLKPWDERSKENSVFALAQRAQQHFFTFRDAMVFAFAPPAVLELGNATGFDVFLQDRGGVGHEKLMEARNQFLAKAAQSKILSAVRPNGLNDEPQYQLTIDDERASALGVTIADINNTLSIALGASYVNDFIDRGRVKKVYIQGEPSARMSPEDLQKWYVRNGAGEMVPFSSFAKGEWTYGSPKLSRYNGVEAMEILGAPAPGYSTGEAMAEVERIAGELPSGIGFSWTGMSYEEKLSGSQMPALFALSVLFVFLCLAALYESWSIPIAVVLVVPLGIIGALIATSLRGLSNDVYFLVGLLTTIGLAAKNAILIVEFAKELHEQGRSLYDAAIEACRMRLRPIIMTSLAFILGVVPLTIASGAGAGSQHAIGTGVIGGMISATVLAIFWVPLFFVAVSSLFGSKEPEKDVTPENPRYEAGQ	equivalent tolerance

Reference: patent US10513713B2, “Modified host cells having tolerance to α-olefins” (priority 2014, dated 2019)
